Assays:
Assay in all cases: Kinase Profiling Assay
Assay type in all cases: biochemical
Details in all cases: 100 μM
ARK5 (h) = target: T1, ARK5 (h) (Homo sapiens, UniProt O60285)
T1 sequence (O60285 1-661): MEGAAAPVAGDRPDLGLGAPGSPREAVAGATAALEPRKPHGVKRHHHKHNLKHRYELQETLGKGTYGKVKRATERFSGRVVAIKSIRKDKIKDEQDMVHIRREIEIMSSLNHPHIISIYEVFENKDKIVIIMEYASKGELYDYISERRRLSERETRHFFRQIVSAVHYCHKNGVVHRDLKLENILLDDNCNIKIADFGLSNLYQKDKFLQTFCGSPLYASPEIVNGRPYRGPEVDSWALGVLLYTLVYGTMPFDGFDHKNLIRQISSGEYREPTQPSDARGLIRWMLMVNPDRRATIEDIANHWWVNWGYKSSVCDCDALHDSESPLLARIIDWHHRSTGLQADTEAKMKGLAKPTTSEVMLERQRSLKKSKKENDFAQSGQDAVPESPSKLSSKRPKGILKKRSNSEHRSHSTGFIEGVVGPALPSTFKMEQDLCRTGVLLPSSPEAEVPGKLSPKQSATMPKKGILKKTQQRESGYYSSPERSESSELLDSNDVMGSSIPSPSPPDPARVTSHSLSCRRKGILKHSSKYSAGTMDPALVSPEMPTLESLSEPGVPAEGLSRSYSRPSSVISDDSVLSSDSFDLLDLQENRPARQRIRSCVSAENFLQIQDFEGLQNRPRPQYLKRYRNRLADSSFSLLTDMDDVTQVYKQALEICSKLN
How it was run: (§1)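 Kinase inhibition by MK2 inhibitory peptides was profiled radiometrically, with substrate phosphorylation from labeled ATP read by scintillation after capture on a charged filter. Values are relative to 100% activity and measured in duplicate.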

EphB2 (h) = target: T2, EphB2 (h) (Homo sapiens, UniProt P29323)
T2 sequence (P29323 19-1055): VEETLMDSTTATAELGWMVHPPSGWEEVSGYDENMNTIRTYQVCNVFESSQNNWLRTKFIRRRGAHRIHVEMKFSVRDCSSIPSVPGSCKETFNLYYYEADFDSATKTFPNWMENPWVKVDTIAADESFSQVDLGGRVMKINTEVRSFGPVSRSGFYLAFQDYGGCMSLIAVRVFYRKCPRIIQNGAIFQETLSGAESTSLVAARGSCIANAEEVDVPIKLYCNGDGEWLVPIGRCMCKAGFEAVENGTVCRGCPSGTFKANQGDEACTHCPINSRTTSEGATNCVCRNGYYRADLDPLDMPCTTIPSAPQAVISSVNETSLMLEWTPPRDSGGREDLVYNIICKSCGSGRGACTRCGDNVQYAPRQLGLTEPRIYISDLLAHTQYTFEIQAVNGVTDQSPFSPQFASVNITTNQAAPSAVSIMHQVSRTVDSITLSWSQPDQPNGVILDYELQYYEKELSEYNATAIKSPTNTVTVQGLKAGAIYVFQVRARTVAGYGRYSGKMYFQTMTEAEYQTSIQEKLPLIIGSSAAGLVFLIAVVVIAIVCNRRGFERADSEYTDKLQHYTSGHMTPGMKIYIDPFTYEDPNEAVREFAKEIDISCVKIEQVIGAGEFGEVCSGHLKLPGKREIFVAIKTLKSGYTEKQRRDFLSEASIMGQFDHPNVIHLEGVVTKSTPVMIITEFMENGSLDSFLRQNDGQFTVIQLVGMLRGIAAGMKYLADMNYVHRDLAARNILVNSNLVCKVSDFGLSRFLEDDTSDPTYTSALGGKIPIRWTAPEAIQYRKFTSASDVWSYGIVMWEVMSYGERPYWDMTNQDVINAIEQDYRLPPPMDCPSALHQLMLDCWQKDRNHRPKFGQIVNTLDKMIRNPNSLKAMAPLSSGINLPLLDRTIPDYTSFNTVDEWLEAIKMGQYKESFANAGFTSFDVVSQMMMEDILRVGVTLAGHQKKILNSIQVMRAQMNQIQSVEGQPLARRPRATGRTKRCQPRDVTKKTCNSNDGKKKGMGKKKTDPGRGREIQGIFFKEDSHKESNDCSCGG
How it was run: as §1

GRK6 (h) = target: T3, GRK6 (h) (Homo sapiens, UniProt P43250)
T3 construct: purchased Millipore
T3 sequence (P43250 whole entry): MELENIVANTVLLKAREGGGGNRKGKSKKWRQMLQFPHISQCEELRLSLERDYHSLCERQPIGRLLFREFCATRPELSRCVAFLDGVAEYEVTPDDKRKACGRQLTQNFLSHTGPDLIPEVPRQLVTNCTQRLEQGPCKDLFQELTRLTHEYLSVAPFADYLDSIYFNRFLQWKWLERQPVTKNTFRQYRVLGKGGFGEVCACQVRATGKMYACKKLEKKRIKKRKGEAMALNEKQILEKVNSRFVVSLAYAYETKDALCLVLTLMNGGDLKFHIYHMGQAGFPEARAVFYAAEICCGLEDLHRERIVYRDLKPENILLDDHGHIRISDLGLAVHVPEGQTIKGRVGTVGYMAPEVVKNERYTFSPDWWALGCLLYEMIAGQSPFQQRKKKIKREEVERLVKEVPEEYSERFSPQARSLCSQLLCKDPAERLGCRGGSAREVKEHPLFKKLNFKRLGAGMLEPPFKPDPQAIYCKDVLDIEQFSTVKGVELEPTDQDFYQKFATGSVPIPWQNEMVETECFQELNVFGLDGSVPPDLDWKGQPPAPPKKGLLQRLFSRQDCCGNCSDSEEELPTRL
How it was run: as §1

Hck (h) = target: T4, Hck (h) (Homo sapiens, UniProt P08631)
T4 construct: purchased Millipore
T4 sequence (P08631 whole entry): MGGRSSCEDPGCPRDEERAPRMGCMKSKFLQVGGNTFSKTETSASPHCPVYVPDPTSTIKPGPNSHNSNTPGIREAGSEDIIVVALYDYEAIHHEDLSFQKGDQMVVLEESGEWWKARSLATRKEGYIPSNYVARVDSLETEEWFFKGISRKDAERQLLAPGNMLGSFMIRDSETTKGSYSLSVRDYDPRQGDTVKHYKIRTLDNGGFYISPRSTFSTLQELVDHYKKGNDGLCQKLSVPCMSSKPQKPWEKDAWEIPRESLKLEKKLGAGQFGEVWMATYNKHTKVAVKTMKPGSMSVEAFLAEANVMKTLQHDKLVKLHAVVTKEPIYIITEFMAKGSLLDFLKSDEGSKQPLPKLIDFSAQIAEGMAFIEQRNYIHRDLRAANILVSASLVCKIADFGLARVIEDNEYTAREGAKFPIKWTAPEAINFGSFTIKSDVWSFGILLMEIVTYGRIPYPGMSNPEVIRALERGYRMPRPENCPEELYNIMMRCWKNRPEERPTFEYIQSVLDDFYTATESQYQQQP
How it was run: as §1

Lyn (h) = Lyn (h) (Homo sapiens, UniProt P07948)
Sequence of Lyn (h) (P07948 whole entry): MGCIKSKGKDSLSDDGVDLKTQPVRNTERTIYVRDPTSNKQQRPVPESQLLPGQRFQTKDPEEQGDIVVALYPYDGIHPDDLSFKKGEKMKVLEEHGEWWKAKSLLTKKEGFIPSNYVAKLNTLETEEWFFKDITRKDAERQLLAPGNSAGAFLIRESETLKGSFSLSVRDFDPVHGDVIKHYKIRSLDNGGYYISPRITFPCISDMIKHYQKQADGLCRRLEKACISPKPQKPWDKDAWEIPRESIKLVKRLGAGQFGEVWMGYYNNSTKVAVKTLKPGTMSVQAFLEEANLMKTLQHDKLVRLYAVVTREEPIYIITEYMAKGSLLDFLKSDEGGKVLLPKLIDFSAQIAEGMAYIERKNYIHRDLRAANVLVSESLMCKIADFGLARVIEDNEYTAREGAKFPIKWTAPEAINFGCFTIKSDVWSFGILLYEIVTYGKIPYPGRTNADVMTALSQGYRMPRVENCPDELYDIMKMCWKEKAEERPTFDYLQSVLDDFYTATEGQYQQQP
How it was run: as §1

MST3 (h) = target: T5, MST3 (h) (Homo sapiens, UniProt Q9Y6E0)
T5 construct: purchased Millipore
T5 sequence (Q9Y6E0 whole entry): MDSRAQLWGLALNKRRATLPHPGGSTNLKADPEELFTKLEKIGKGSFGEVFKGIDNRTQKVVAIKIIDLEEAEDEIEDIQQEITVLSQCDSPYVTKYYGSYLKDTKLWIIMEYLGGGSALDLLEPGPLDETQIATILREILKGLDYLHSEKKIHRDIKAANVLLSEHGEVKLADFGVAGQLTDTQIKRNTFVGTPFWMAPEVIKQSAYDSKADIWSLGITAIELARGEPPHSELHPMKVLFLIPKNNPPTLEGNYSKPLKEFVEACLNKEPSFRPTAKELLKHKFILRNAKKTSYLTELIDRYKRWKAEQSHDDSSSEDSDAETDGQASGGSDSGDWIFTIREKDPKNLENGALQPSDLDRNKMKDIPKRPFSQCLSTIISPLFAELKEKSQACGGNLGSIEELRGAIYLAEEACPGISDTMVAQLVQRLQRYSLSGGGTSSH
How it was run: as §1

Mnk2 (h) = target: T6, Mnk2 (h) (Homo sapiens, UniProt Q9HBH9)
T6 construct: purchased Millipore
T6 sequence (Q9HBH9 whole entry): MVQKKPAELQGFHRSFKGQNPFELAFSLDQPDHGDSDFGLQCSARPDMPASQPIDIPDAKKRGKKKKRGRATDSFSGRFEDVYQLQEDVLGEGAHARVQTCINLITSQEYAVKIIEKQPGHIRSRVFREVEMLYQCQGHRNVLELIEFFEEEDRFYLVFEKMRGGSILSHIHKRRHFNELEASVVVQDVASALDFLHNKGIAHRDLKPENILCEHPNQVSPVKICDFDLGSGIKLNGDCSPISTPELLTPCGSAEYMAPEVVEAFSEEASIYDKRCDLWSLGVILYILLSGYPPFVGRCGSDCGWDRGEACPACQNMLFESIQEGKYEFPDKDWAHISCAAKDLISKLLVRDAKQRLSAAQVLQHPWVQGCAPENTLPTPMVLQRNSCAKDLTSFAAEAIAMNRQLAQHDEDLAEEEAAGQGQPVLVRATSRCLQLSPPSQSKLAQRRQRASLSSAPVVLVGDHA
How it was run: as §1

PDK1 (h) = target: T7, PDK1 (h) (Homo sapiens, UniProt O15530)
T7 construct: purchased Millipore
T7 sequence (O15530 1-556): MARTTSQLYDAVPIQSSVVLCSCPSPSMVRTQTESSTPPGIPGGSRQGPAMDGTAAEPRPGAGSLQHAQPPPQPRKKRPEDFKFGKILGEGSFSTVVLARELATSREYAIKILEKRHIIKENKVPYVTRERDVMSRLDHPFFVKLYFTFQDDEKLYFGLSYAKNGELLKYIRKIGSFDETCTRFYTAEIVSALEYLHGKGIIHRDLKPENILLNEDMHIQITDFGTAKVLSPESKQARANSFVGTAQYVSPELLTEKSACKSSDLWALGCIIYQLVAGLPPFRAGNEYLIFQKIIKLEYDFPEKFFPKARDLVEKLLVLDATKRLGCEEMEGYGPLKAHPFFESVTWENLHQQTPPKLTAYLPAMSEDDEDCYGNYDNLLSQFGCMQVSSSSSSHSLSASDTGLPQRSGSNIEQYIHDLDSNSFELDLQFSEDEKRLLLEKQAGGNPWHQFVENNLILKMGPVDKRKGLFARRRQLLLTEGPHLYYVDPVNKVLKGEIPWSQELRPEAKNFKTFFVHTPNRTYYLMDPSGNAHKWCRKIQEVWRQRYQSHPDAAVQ
How it was run: as §1

STK33 (h) = STK33 (h) (Homo sapiens, UniProt Q9BYT3)
Sequence of STK33 (h) (Q9BYT3 whole entry): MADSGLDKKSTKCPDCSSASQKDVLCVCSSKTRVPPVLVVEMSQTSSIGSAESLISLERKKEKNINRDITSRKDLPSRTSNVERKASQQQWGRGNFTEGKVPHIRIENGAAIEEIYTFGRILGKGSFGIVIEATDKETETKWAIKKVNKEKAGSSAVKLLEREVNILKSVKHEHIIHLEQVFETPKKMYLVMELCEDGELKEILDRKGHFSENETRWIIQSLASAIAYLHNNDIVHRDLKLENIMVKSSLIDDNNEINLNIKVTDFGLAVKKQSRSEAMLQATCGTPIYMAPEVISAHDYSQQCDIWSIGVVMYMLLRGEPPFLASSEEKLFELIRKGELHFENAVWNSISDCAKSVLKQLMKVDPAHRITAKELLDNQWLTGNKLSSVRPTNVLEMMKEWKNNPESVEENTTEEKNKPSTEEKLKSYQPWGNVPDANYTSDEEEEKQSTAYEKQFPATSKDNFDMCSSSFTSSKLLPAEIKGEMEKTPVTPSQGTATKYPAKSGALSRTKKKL
How it was run: as §1

EGFR(L858R) (h) = target: T8, EGFR(L858R) (h) (Homo sapiens, UniProt P00533, L858R)
T8 construct: purchased Millipore
How it was run: as §1

Sequence	% activity (ARK5 (h))	% activity (EphB2 (h))	% activity (GRK6 (h))	% activity (Hck (h))	% activity (Lyn (h))	% activity (MST3 (h))	% activity (Mnk2 (h))	% activity (PDK1 (h))	% activity (STK33 (h))	% activity (EGFR(L858R) (h))
FAKLAARLYRKALARQLGVAA [MMI-0300]	78%	18%	147%	72%	69%	45%	89%	135%	45%	
HRRIKAWLKKIKALARQLGVAA (Mammalian) [MMI-0500]	20%	70%	174%	78%	31%	4%	6%	178%	16%	26%
KAFAKLAARLYRKALARQLGVAA [MMI-0400]	69%	22%	141%	72%	3%	36%	86%	159%	52%	52%
YARAAARQARAKALNRQLGVA (Mammalian) [MMI-0200]	93%	128%	132%		98%	95%		143%	98%	120%

From US10500249B2, “Compositions and methods for preventing or treating diseases, conditions, or processes characterized by aberrant fibroblast proliferation and extracellular matrix deposition” (MOERAE MATRIX, INC., priority 2014, dated 2019)
